Assay results taken from paper doi:10.1101/2021.01.25.428038 (bioRxiv, 2021).

Target: the molecule itself
Assay: bead aggregation assay

B1: hTMIGD1-Fc (extracellular domain of hTMIGD1, AA 1-222, fused to the Fc-part of human IgG) (Fc fusion)
chain: VLTVNGKTENYILDTTPGSQASLICAVQNHTREEELLWYREEGRVDLKSGNKINSSSVCVSSISENDNGISFTCRLGRDQSVSVSVVLNVTFPPLLSGNDFQTVEEGSNVKLVCNVKANPQAQMMWYKNSSLLDLEKSRHQIQQTSESFQLSITKVEKPDNGTYSCIAKSSLKTESLDFHLIVKDKTVGVPIE
B1: binds.
